Source: EP4722253A1

Molecular target: HER2 expressed on JIMT-1 cells (UniProt P04626)
Test: flow cytometry on JIMT-1 cells, antibody at 100 nM, FITC secondary

MFI: 12500
Substance: IgG control (antibody)
